The target of assay [1] is human IL-13 wild type (human) (UniProt P35225). In words: competition, ELISA RBA: IL-13 to IL-13Rα2/Fc. A general note: An ELISA detects its analyte on a solid surface through an enzyme-linked reagent.
Assay [2] has the same target. The experiment in a line: competition, cell surface RBA: IL-13 to IL-13Rα2 on COS cells.

Chain of human IL-13 wild type (human) (P35225 other isoform, or with tags, fused parts or gaps limits assumed): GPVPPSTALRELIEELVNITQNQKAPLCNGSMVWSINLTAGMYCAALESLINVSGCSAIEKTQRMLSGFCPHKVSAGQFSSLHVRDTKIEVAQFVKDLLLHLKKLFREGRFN

B1: MJ2-7 (antibody, from another filing, V domains shown)
VH: EVQLQQSGAELVKPGASVKLSCTGSGFNIKDTYIHWVKQRPEQGLEWIGRIDPANDNIKYDPKFQGKATITADTSSNTAYLQLNSLTSEDTAVYYCARSEENWYDFFDYWGQGTTLTVSS
VL: DVLMTQTPLSLPVSLGDQASISCRSSQSIVHSNGNTYLEWYLQKPGQSPKLLIYKVSNRFSGVPDRFSGSGSGTDFTLKISRVEAEDLGVYYCFQGSHIPYTFGGGTKLEIK
On to B1, for which the percent inhibition at 100 nM turned out to be 60% in assay [1] and 70% in assay [2].

The values above are taken from patent publication US20140099313A1.
